{
  "source": "patent US20220205015A1",
  "about": "(NANYANG TECHNOLOGICAL UNIVERSITY, published 2022)",
  "key": {"[1]": {"tested_on": "T1, LL37ARRA (CLLGDFARRAKEKIG)", "T1 sequence": "CLLGDFARRAKEKIG"}, "[2]": {"target": "T2, OmpT (omptin outer membrane protease of Escherichia coli), recombinant, reconstituted in detergent micelles (Escherichia coli, UniProt P09169 21-317)", "T2 sequence": "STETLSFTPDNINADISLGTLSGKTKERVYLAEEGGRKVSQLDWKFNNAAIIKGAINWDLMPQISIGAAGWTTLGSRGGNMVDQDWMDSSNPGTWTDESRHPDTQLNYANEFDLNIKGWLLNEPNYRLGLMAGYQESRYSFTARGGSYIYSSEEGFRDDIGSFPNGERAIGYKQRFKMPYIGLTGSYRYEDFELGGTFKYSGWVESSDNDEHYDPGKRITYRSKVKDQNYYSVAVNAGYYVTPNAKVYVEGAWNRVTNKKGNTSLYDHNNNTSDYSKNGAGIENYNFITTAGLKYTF", "assay": "cell-based or functional assay"}, "[3]": {"target": "T3, LL37ARRA (CLLGDFARRAKEKIG)", "T3 chain": "CLLGDFARRAKEKIG"}, "[4]": {"target": "T4, LL37FRRA (CLLGDFFRRAKEKIG)", "T4 chain": "CLLGDFFRRAKEKIG"}, "[5]": {"target": "T5, LL37FRRV (CLLGDFFRRVKEKIG)", "T5 chain": "CLLGDFFRRVKEKIG"}, "[6]": {"target": "T6, LL37FRRY (CLLGDFFRRYKEKIG)", "T6 chain": "CLLGDFFRRYKEKIG"}, "[7]": {"target": "T7, LL37YRRA (CLLGDFYRRAKEKIG)", "T7 chain": "CLLGDFYRRAKEKIG"}},
  "note": "Where two headings read alike, the source gives them in different places. Where no end group is shown, it is not given here.",
  "data": [
    {"molecule": "PgtE (omptin protease, present on pathogenic Salmonella typhi)", "values": [
      {"measurement": "proteolytic activity, measured as the change in PT6 fluorescence with time", "setting": "[1]", "result": "OmpT exhibits a higher preference for LL37ARRA (SEQ ID NO: 11) than does PgtE"}
    ]},
    {"molecule": "CLLGDFFRRVKEKIG-NH2", "note": "[LL37FRRV (CLLGDFFRRVKEKIG)]", "values": [
      {"measurement": "incubation time with OmpT for an almost complete reduction in PT6 fluorescence", "setting": "[2]", "result": "> 40", "unit": "min"}
    ]},
    {"molecule": "CLLGDFFRRAKEKIG", "note": "[LL37FRRA (CLLGDFFRRAKEKIG)]", "values": [
      {"measurement": "colour of PT6 under UV-A light after incubation with OmpT", "setting": "[2]", "result": "≤ 10", "unit": "min"},
      {"measurement": "incubation time with OmpT for an almost complete reduction in PT6 fluorescence", "setting": "[2]", "result": "< 20", "unit": "min"}
    ]},
    {"molecule": "CLLGDFFRRYKEKIG", "note": "[LL37FRRY (CLLGDFFRRYKEKIG)]", "values": [
      {"measurement": "colour of PT6 under UV-A light after incubation with OmpT", "setting": "[2]", "result": "≤ 10", "unit": "min"},
      {"measurement": "incubation time with OmpT for an almost complete reduction in PT6 fluorescence", "setting": "[2]", "result": "< 20", "unit": "min"}
    ]},
    {"molecule": "CLLGDFYRRAKEKIG", "note": "[LL37YRRA (CLLGDFYRRAKEKIG)]", "values": [
      {"measurement": "colour of PT6 under UV-A light after incubation with OmpT", "setting": "[2]", "result": "≤ 10", "unit": "min"},
      {"measurement": "incubation time with OmpT for an almost complete reduction in PT6 fluorescence", "setting": "[2]", "result": "< 20", "unit": "min"}
    ]},
    {"molecule": "OmpT (omptin outer membrane protease of Escherichia coli), recombinant, reconstituted in detergent micelles (protein) STETLSFTPDNINADISLGTLSGKTKERVYLAEEGGRKVSQLDWKFNNAAIIKGAINWDLMPQISIGAAGWTTLGSRGGNMVDQDWMDSSNPGTWTDESRHPDTQLNYANEFDLNIKGWLLNEPNYRLGLMAGYQESRYSFTARGGSYIYSSEEGFRDDIGSFPNGERAIGYKQRFKMPYIGLTGSYRYEDFELGGTFKYSGWVESSDNDEHYDPGKRITYRSKVKDQNYYSVAVNAGYYVTPNAKVYVEGAWNRVTNKKGNTSLYDHNNNTSDYSKNGAGIENYNFITTAGLKYTF", "values": [
      {"measurement": "proteolytic activity, measured as the change in PT6 fluorescence with time", "setting": "[3]", "result": "OmpT exhibits a higher preference for LL37ARRA (SEQ ID NO: 11) than does PgtE"},
      {"measurement": "rate of cleavage by OmpT", "setting": "[4]", "result": "cleaved by the protease (OmpT) much more rapidly than the LL37FRRY peptide substrate used in Examples 1-5"},
      {"measurement": "time to full cleavage by OmpT", "setting": "[4]", "result": "fully cleaved by OmpT in less than 20 min"},
      {"measurement": "SAMDI-MS screen of a peptide array for cleavage by omptin proteases", "setting": "[5]", "result": "400 times better then original peptide"},
      {"measurement": "cleavage, confirmed by MALDI-TOF", "setting": "[5]", "result": "it was cleaved at the dibasic site (-R8-R9-) to yield two short fragments of eight and seven residues"},
      {"measurement": "rate of cleavage by OmpT", "setting": "[6]", "result": "cleaved by the protease (OmpT) much more rapidly than the LL37FRRY peptide substrate used in Examples 1-5"},
      {"measurement": "rate of cleavage by OmpT", "setting": "[7]", "result": "cleaved by the protease (OmpT) much more rapidly than the LL37FRRY peptide substrate used in Examples 1-5"},
      {"measurement": "time to full cleavage by OmpT", "setting": "[7]", "result": "fully cleaved by OmpT in less than 20 min"}
    ]}
  ]
}
